According to the supplement of paper PMC7877785:
± gives the uncertainty stated by the source.

Test: self-splicing fitness, log relative to wild type (ln ratio); higher = more splicing; Tetrahymena group I intron in knt gene, E. coli kanamycin selection, DiMSum; sequences stand for … in CUCUCU…GGAGGGAAAAGUUAUCAGGCAUGCACCUGGUAGCUAGUCUUUAAACCAAUAGAUUGCAUCGGUUUAAAAGGCAAGACCGUCAAAUUGCGGGAAAGGGGUCAACAGCCGUUCAGUACCAAGUCUCAGGGGAAACUUUGAGAUGGCCUUGCAAAGGGUAUGGUAAUAAGCUGACGGACAUGGUCCUAACCACGCAGCCAAGUCCUAAGUCAACAGAUCUUCUGUUGAUAUGGAUGCAGUUCACAGACUAAAUGUCGGUCGGGGAAGAUGUAUUCUUCUCAUAAGAUAUAGUCGGACCUCUCCUUAAUGGGAGCUAGCGGAUGAAGUGAUGCAACACUGGAGCCGCUGGGAACUAAUUUGUAUGCGAAAGUAUAUUGAUUAGUUUUGGAGUACUCGUGGUCG
Outline: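 Six replicate transformations of E. coli BL21(DE3) with a pET-22b(+) library were grown overnight at 37°C or 30°C. The library randomised all eight P1ex-region intron nucleotides, the intron lying in the knt kanamycin-resistance gene, and plates were LB agar with or without 25 μg/mL kanamycin plus 100 μg/mL carbenicillin, 50 μM IPTG and 0.2% rhamnose. Pooled colonies were amplicon-sequenced on an Illumina HiSeq 2500, and fitness is the DiMSum error-weighted combination of wild-type-normalised replicate fold changes, kanamycin versus none.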

Sequence | self-splicing fitness (ln) (30 °C) | self-splicing fitness (ln) (37 °C)
CGCCAGCAAUAUUACGCUAG | -2.94 ± 0.16 | -2.4 ± 0.23
CGCCAGCAAUAUUACGGACG | -4.63 ± 0.31 | -2.95 ± 0.28
CGCCAGCAAUAUUACGGAUC | -1.24 ± 0.22 | -1.38 ± 0.47
CGCCAGCAAUAUUACGGCUA | -0.576 ± 0.061 | -0.172 ± 0.068
CGCCAGCAAUAUUACGGGCC | -3.13 ± 0.21 | -1.72 ± 0.2
CGCCAGCAAUAUUACGGGGC | -4 ± 0.19 | -2.55 ± 0.16
CGCCAGCAAUAUUACGGUCC | -0.387 ± 0.13 | -0.161 ± 0.16
CGCCAGCAAUAUUACGGUGU | -2.27 ± 0.12 | -2.84 ± 0.26
CGCCAGCAAUAUUACGUACG | -1.6 ± 0.098 | -0.916 ± 0.12
CGCCAGCAAUAUUACGUAGG | -2.47 ± 0.085 | -1.32 ± 0.1
CGCCAGCAAUAUUACGUCAC | -3.7 ± 0.24 | -2 ± 0.24
CGCCAGCAAUAUUACGUCCA |  | -1.45 ± 0.39
CGCCAGCAAUAUUACGUGAU | -3.42 ± 0.088 | -2.27 ± 0.11
CGCCAGCAAUAUUACGUUUG | -1.17 ± 0.049 | -0.629 ± 0.072
CGCGAGCAAUAUUACGAACU | -1.75 ± 0.18 | -0.234 ± 0.23
CGCGAGCAAUAUUACGACAA | -2.72 ± 0.34 | -2.28 ± 0.33
CGCGAGCAAUAUUACGACAU | -3.853 ± 0.03 | -2.77 ± 0.043
CGCGAGCAAUAUUACGACGG | -0.512 ± 0.1 | -0.452 ± 0.11
CGCGAGCAAUAUUACGACUA | -2.42 ± 0.23 | -2.64 ± 0.25
CGCGAGCAAUAUUACGAGUA | -3.55 ± 0.32 | -2.61 ± 0.27
CGCGAGCAAUAUUACGAUUG | -1.3 ± 0.12 | -0.15 ± 0.12
CGCGAGCAAUAUUACGCAAU | -4.68 ± 0.36 | -2.83 ± 0.29

Sequence | self-splicing fitness (ln) (30 °C) | self-splicing fitness (ln) (37 °C)
CGCGAGCAAUAUUACGCACU | -2.58 ± 0.13 | -1.51 ± 0.13
CGCGAGCAAUAUUACGCUUU | -3.44 ± 0.33 | -0.916 ± 0.24
CGCGAGCAAUAUUACGGACC |  | -1.47 ± 0.31
CGCGAGCAAUAUUACGGACU | -1.82 ± 0.3 | -0.107 ± 0.26
CGCGAGCAAUAUUACGGGAC | -3.07 ± 0.25 | -2.43 ± 0.45
CGCGAGCAAUAUUACGGUUU | -4.02 ± 0.22 | -2.55 ± 0.18
CGCGAGCAAUAUUACGUAUA | -3.38 ± 0.27 | -1.24 ± 0.24
CGCGAGCAAUAUUACGUAUU | -3.09 ± 0.43 | -2.6 ± 0.39
CGCGAGCAAUAUUACGUCAG | -1.19 ± 0.092 | -1.27 ± 0.11
CGCGAGCAAUAUUACGUGUG | -4.51 ± 0.24 | -2.68 ± 0.13
CGCUAGCAAUAUUACGAAGU | -3.12 ± 0.22 | -2.28 ± 0.31
CGCUAGCAAUAUUACGAGAU | -3.86 ± 0.19 | -3.36 ± 0.23
CGCUAGCAAUAUUACGAGCC | -1.23 ± 0.2 | -0.554 ± 0.17
CGCUAGCAAUAUUACGAUCA | -0.592 ± 0.16 | -0.635 ± 0.13
CGCUAGCAAUAUUACGAUUU | -3.41 ± 0.2 | -1.42 ± 0.12
CGCUAGCAAUAUUACGCCGG | -3.06 ± 0.29 | -2.24 ± 0.45
CGCUAGCAAUAUUACGCCUU | -2.49 ± 0.27 | -0.069 ± 0.19
CGCUAGCAAUAUUACGCGAA |  | -2.95 ± 0.43
CGCUAGCAAUAUUACGCGAU | -3.59 ± 0.19 | -2.25 ± 0.2
CGCUAGCAAUAUUACGCUCG | -1.72 ± 0.22 | -1.02 ± 0.4
CGCUAGCAAUAUUACGCUGA | -2.69 ± 0.2 | -2.26 ± 0.22
